Assay results as given in patent US11723946B2, “Methods for regulating transcription of multiple genes and expression of multiple targets” (CHINA MEDICAL UNIVERSITY, priority 2014, dated 2023).
Where two headings read alike, the source gives them in different places.

Columns and labels:
[1] = system: Column (IL-1β and TNF signaling pathway genes); conditions: Down-regulated, 2.5 mmol/kg daily, 7 days
Experimental: (§1) The wild-type FVB mice were divided into the control group and the experimental group, wherein the mice in the experimental group were daily administered with 20 μl peptide-containing solution that contains 2.5 mmol/kg of the present peptide for 7 days. Moreover, the mice in the control group were daily administrated with 20 μl PBS solution for 7 days.
(§2) After the daily administration, the tissues of column, muscle, fat pad, liver and kidney were collected for analyzing the expression of multiple targets by system biology analysis. Herein, the altered expressions of the targets in the genome were determined by using DNA microarray which is a well-established tool for systematic biology analysis. Furthermore, the results of the DNA microarray were further categorized and analyzed by bioinformatics analysis to determine the effect and affected signaling pathways of the present polypeptide. Therefore, it can determine the downstream targets of the present polypeptide comprising the amino acid sequence of SEQ ID No. 1 by the mechanism investigation through microarray analysis and gene expression profile. The detail steps including:
(§3) (1) RNA preparation: The total RNA was extracted from the tissue by using RNeasy Mini Kit (Qiagen, Valencia, Calif., USA). The amount of the extracted total RNA was measured by Beckman DU800 spectrophotometer (Beckman Coulter, Fullerton, Calif., USA). In the next step, the quality of the RNA sample with A260/A280 ratio more than 1.8 was further evaluated by Agilent 2100 bioanalyzer (Agilent Technologies, Santa Clara, Calif., USA). When with the RNA integrity number of the sample is more than 8.0, it would be analyzed by the following microarray analysis.
(§4) (2) DNA microarray analysis: The procedure of DNA microarray analysis was conducted according to the reference (Cheng, 2007). Briefly, 5 μg of total RNA was amplified by in vitro transcription using MessageAmp™ aRNA kit (Ambion). In the following, the fluorescence dye, Cy5, was chemically labeled on the amplified RNA (aRNA). After the labeling, the fluorescence labeled aRNA was hybridized with Whole Genome OneArray™ in hybridization buffer (Phalanx Biotech Group, Taiwan) on cover slide. Following the hybridization reaction at 50° C. over-night, the non-specific binding on the chip was washed by three washing steps. The washed chip was dried by centrifugation and was scanned by Axon 4000 scanner (Molecular Devices, Sunnyvale, Calif., USA) to measure the fluorescence signals. The fluorescence intensity of Cy5 on each spots was further analyzed by genepix 4.1 (Molecular Devices). First, the signals of each spot were adjusted by deducting the intensity of background. In the next step, the spots including the probes of internal controls or the spots with the signal-to-noise ratios less than […] would be removed. The qualified spots were normalized by limma package which is belonged to R console (Smyth, 2005).
(§5) (3). Analysis of the functional mechanism and affected signaling pathways by using bioinformatics software: The altered downstream targets, functional mechanisms, affected signaling pathways and the disease relevance were investigated by using the bioinformatics software such as Medical Subject Headings (MeSH, http://www.nlm.nih.gov/mesh/meshhome.html) and BiblioSphere Pathway Edition.

[2] = system: Kidney (Diabetes; Nephrosis genes); conditions: Down-regulated, 2.5 mmol/kg daily, 7 days
Experimental: as §1, §2, §3, §4, §5

[3] = system: Liver (Fatty liver genes); conditions: Down-regulated, 2.5 mmol/kg daily, 7 days
Experimental: as §1, §2, §3, §4, §5

NF-κB = assay: Whole animal bioluminescent imaging, LPS-induced NF-κB/luc transgenic mice; format: in vivo
Description: Mice: The NF-κB/luc transgenic mice bearing the luciferase transgene driven by two copies of the NF-kappaB regulatory elements were mated with wild-type FVB mice to generate the hybrid NF-κB/luc transgenic offspring for the experiments. Whole animal bioluminescent imaging: 15 mice with age of 6˜8 weeks were randomly divided into three groups. The group 1 was the blank group; the group 2 was control group; and the group 3 was experimental group. The mice of the group 2 and the group 3 were administration with 100 ul of […] lipopolysaccharide (LSP) solution to induce the inflammation in the mice by intraperitoneal injection (IP injection). As the blank control, the mice of group 1 were administered with 100 μl of PBS by IP injection. After the LPS-injection for 5 minutes, the mice of the group 3 were further injected with 20 μl solution that contains 0.5 mg/Kg of the present polypeptide by IP injection. In contrast, the mice of the group 2 and the […] were injected with 20 μul of water. […] For in vivo imaging mice were anesthetized with isoflurane and injected intraperitoneally with 150 mg/kg luciferin. After 10 minutes, the mice were placed face up and imaged for 1 min with the camera set at the highest sensitivity by IVIS Imaging System-200 (Series Xenogen Hopkinton, Mass.). The photons emitted from the tissues were quantified by Living Images software (Xenogen, Hopkinton, Mass.) and were shown in FIG. 4A. In the FIG. 4A, the Y-axis shown the signal strength (photons/sec) that stands for total photons diffused from the mice.

[4] = Muscle histology (H&E) in genetic deficient mice; format: in vivo; conditions: 2.5 nmol/kg peritoneal twice a week, 4 weeks; vs control mice
Description: Collecting the muscles from the mice of the both groups stated in example 5. The collected muscles were for histological examination. In the histology examination, the cell number and cellular size of the muscular tissue were examined by H&E staining and microscopy observation.

[5] = system: Muscle (IGF and adipocytokine signaling pathway genes); conditions: 2.5 mmol/kg daily, 7 days
Experimental: (2) DNA microarray analysis: The procedure of DNA microarray analysis was conducted according to the reference (Cheng, 2007). Briefly, 5 μg of total RNA was amplified by in vitro transcription using MessageAmp™ aRNA kit (Ambion). In the following, the fluorescence dye, Cy5, was chemically labeled on the amplified RNA (aRNA). After the labeling, the fluorescence labeled aRNA was hybridized with Whole Genome OneArray™ in hybridization buffer (Phalanx Biotech Group, Taiwan) on cover slide. Following the hybridization reaction at 50° C. over-night, the non-specific binding on the chip was washed by three washing steps. The washed chip was dried by centrifugation and was scanned by Axon 4000 scanner (Molecular Devices, Sunnyvale, Calif., USA) to measure the fluorescence signals. The fluorescence intensity of Cy5 on each spots was further analyzed by genepix 4.1 (Molecular Devices). First, the signals of each spot were adjusted by deducting the intensity of background. In the next step, the spots including the probes of internal controls or the spots with the signal-to-noise ratios less than 0 would be removed. The qualified spots were normalized by limma package which is belonged to R console (Smyth, 2005).

[6] = Adipocytokine signaling pathway, Down-regulated
[7] = IGF signaling pathway, Up-regulated

B1: present polypeptide: polypeptide comprising the amino acid sequence of SEQ ID No. 1; made by peptide synthesis, recombinant expression or extraction from Momordica charantia (peptide, listed as Artificial synthsis)
chain: SRCQGKSSWPQLVGSTGAAAKAWIERENPRVRAVIIKVGSGATKDFRCDRVRVWVTERGIVARPPTIG
[1]; IL-1β signaling pathway
  Fold, Ccl2: 1.71 folds
  Fold, Cdh2: 1.73 folds
  Fold, Icam1: 2.27 folds
  Fold, Pecam1: 1.99 folds
  Fold, Tnfrsf11b: 2.74 folds
[1]; TNF signaling pathway
  Fold, ADIPOQ: 1.78 folds
  Fold, Bcl3: 1.72 folds
  Fold, CD40: 1.79 folds
  Fold, Casp3: 1.71 folds
  Fold, Ikbke: 1.95 folds
  Fold, Irs1: 1.73 folds
  Fold, Ltf: 1.99 folds
  Fold, Mapk3: 2.32 folds
  Fold, Mapk9: 1.53 folds
  Fold, Rxra: 1.89 folds
  Fold, Socs1: 2.46 folds
  Fold, Tnfrsf11b: 2.74 folds
[2]
  Fold, Apoc3: 2.5 folds
  Fold, Ctla4: 1.65 folds
  Fold, Fabp2: 1.62 folds
  Fold, Fgb: 1.91 folds
  Fold, Hp: 2.35 folds
[3]
  Fold, Aldh2: 2.5 folds
  Fold, Ctla4: 1.56 folds
  Fold, Cyp17a1: 1.52 folds
  Fold, Mmp2: 2.11 folds
  Fold, Mttp: 3.53 folds
  Fold, Sod2: 1.71 folds
NF-κB; group 3 (LPS + 0.5 mg/Kg polypeptide IP)
  suppression of luminescent intensity: about 38%
NF-κB; group 3: LPS + 0.5 mg/Kg polypeptide IP, 4 hours after injection
  average of luciferin value: 19.82×10^7 photons/sec
[4]
  muscular dystrophy (H&E histology of muscle): improved the muscular dystrophy
[5]; [6]
  Fold, Acsl1: 4.56 folds
  Fold, Akt1: 1.57 folds
  Fold, Cd36: 2.42 folds
  Fold, Nfkbia: 2.55 folds
  Fold, Prkag1: 1.93 folds
  Fold, Ptpn11: 2.31 folds
  Fold, Stat3: 1.55 folds
[5]; [7]
  Fold, Adprt1: Up-regulated 1.9 folds
  Fold, Cabin1: Up-regulated 2.4 folds
  Fold, Igfbp5: Up-regulated 1.9 folds
  Fold, Irs1: Up-regulated 3.7 folds
  Fold, Map2k2: Up-regulated 1.6 folds
  Fold, Mdk: Up-regulated 3.4 folds
  Fold, Mmp13: Up-regulated 3.0 folds
  Fold, Myh1: Up-regulated 3.2 folds
  Fold, Nfatc3: Up-regulated 1.5 folds
  Fold, Pik3r1: Up-regulated 1.8 folds
  Fold, Rps6kb1: Up-regulated 4.7 folds
  Fold, Spp1: Up-regulated 3.6 folds
  Fold, Twist 1: Up-regulated 2.1 folds
  Fold, Vegfa: Up-regulated 1.5 folds
